Each block holds one binder with its values, some of them ahead of it.
Columns and labels:
APC4436-AA = target: T1, APC4436-AA; experiment: two-hybrid library CCmax; details: mean of both orientations;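 further: natural log of median RNA to DNA barcode read ratio; higher means stronger binding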
T1 chain: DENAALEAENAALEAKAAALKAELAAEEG

APC2237-AA = target: T2, APC2237-AA; experiment: two-hybrid library CCmax; details: mean of both orientations;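 further: natural log of median RNA to DNA barcode read ratio; higher means stronger binding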
T2 chain: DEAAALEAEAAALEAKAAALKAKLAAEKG

APC1434-AA = target: T3, APC1434-AA; experiment: two-hybrid library CCmax; details: mean of both orientations;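 further: natural log of median RNA to DNA barcode read ratio; higher means stronger binding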
T3 chain: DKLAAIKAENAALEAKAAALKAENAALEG

4H733-AA = target: T4, 4H733-AA; experiment: two-hybrid library CCmax; details: mean of both orientations;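 further: natural log of median RNA to DNA barcode read ratio; higher means stronger binding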
T4 chain: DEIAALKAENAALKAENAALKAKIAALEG

4H2290-AA = target: T5, 4H2290-AA; experiment: two-hybrid library CCmax
T5 chain: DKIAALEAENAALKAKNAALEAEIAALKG

APC3645-AA = target: T6, APC3645-AA; experiment: two-hybrid library CCmax; details: mean of both orientations
T6 chain: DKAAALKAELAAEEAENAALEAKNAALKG

APC8910-AA = target: T7, APC8910-AA; experiment: two-hybrid library CCmax; details: mean of both orientations
T7 chain: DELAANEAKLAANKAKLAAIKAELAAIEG

APC1015-AA = target: T8, APC1015-AA; experiment: two-hybrid library CCmax; details: mean of both orientations
T8 chain: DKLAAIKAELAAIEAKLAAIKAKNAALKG

4H2458-AA = target: T9, 4H2458-AA; experiment: two-hybrid library CCmax; details: mean of both orientations
T9 chain: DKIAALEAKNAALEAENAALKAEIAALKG

APC9319-AA = target: T10, APC9319-AA; experiment: two-hybrid library CCmax; details: mean of both orientations
T10 chain: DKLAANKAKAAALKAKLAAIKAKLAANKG

4H2447-AA = target: T11, 4H2447-AA; experiment: two-hybrid library CCmax; details: mean of both orientations
T11 chain: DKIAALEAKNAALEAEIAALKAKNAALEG

4H716-AA = target: T12, 4H716-AA; experiment: two-hybrid library CCmax; details: mean of both orientations
T12 chain: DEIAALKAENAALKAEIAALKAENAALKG

APC8191-AA = target: T13, APC8191-AA; experiment: two-hybrid library CCmax; details: mean of both orientations
T13 chain: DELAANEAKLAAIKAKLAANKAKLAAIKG

APC4264-AA = target: T14, APC4264-AA; experiment: two-hybrid library CCmax; details: mean of both orientations
T14 chain: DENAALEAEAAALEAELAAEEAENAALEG

APC6108-AA = target: T15, APC6108-AA; experiment: two-hybrid library CCmax; details: mean of both orientations
T15 chain: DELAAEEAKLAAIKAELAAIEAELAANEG

4H807-AA = target: T16, 4H807-AA; experiment: two-hybrid library CCmax; details: mean of both orientations
T16 chain: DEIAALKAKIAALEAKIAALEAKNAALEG

APC5383-AA = target: T17, APC5383-AA; experiment: two-hybrid library CCmax; details: mean of both orientations
T17 chain: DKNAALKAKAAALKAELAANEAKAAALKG

4H3330-AA = target: T18, 4H3330-AA; experiment: two-hybrid library CCmax; details: mean of both orientations
T18 chain: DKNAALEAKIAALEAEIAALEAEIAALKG

APC4011-AA = target: T19, APC4011-AA; experiment: two-hybrid library CCmax; details: mean of both orientations
T19 chain: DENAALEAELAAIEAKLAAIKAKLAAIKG

APC2405-AA = target: T20, APC2405-AA; experiment: two-hybrid library CCmax; details: mean of both orientations
T20 chain: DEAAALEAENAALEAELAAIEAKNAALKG

APC232-AA = target: T21, APC232-AA; experiment: two-hybrid library CCmax; details: mean of both orientations
T21 chain: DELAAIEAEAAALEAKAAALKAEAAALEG

APC7099-AA = target: T22, APC7099-AA; experiment: two-hybrid library CCmax; details: mean of both orientations
T22 chain: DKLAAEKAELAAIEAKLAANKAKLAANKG

APC9096-AA = target: T23, APC9096-AA; experiment: two-hybrid library CCmax; details: mean of both orientations
T23 chain: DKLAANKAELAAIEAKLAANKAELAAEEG

4H477-bN = target: T24, 4H477-bN; experiment: two-hybrid library CCNG1
T24 chain: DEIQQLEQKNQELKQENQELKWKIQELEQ

4H3601-bN = target: T25, 4H3601-bN; experiment: two-hybrid library CCNG1
T25 chain: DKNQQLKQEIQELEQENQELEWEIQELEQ

4H2586-bA = target: T26, 4H2586-bA; experiment: two-hybrid library CCNG1
T26 chain: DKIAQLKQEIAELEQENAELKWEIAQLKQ

4H3907-bN = target: T27, 4H3907-bN; experiment: two-hybrid library CCNG1
T27 chain: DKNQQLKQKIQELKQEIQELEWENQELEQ

4H3592-bN = target: T28, 4H3592-bN; experiment: two-hybrid library CCNG1
T28 chain: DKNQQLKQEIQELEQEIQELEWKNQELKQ

4H4038-bN = target: T29, 4H4038-bN; experiment: two-hybrid library CCNG1
T29 chain: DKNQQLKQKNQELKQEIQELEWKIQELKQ

4H1406-bN = target: T30, 4H1406-bN; experiment: two-hybrid library CCNG1
T30 chain: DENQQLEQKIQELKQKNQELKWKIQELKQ

4H932-bA = target: T31, 4H932-bA; experiment: two-hybrid library CCNG1
T31 chain: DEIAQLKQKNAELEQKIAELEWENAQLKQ

P1A-bN = target: T32, P1A-bN; experiment: two-hybrid library CCNG1
T32 chain: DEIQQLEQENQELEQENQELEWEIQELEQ

4H918-bN = target: T33, 4H918-bN; experiment: two-hybrid library CCNG1
T33 chain: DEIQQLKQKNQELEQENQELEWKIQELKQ

4H968-bN = target: T34, 4H968-bN; experiment: two-hybrid library CCNG1
T34 chain: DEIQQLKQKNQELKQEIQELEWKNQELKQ

4H855-bN = target: T35, 4H855-bN; experiment: two-hybrid library CCNG1
T35 chain: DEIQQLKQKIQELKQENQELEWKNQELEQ

4H953-bN = target: T36, 4H953-bN; experiment: two-hybrid library CCNG1
T36 chain: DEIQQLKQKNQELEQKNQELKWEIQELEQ

- interaction score (APC4436-AA): -1.53
- interaction score (APC2237-AA): -1.58
- interaction score (APC1434-AA): -1.4
- interaction score (4H733-AA): -1.79
- interaction score (4H2290-AA): 2
- interaction score (APC3645-AA): -1.44
- interaction score (APC8910-AA): -1.59
- interaction score (APC1015-AA): -1.41
- interaction score (4H2458-AA): -1.34
- interaction score (APC9319-AA): -1.68
- interaction score (4H2447-AA): -1.32
- interaction score (4H716-AA): -1.57
- interaction score (APC8191-AA): -1.64
- interaction score (APC4264-AA): -1.33
- interaction score (APC6108-AA): -1.54
- interaction score (4H807-AA): -1.62
- interaction score (APC5383-AA): -1.86
- interaction score (4H3330-AA): -1.24
- interaction score (APC4011-AA): -1.59
- interaction score (APC2405-AA): -1.42
- interaction score (APC232-AA): -1.33
- interaction score (APC7099-AA): -1.57
- interaction score (APC9096-AA): -1.24
Binder: DKIAALEAENAALKAKNAALEAEIAALKG [4H2290-AA]

- interaction score (4H477-bN): -2.09
- interaction score (4H3601-bN): 1.53
- interaction score (4H2586-bA): 0.875
- interaction score (4H3907-bN): 0.347
- interaction score (4H3592-bN): 0.142
- interaction score (4H4038-bN): -1.69
- interaction score (4H1406-bN): -0.553
- interaction score (4H932-bA): -1.96
Binder: DENQQLEQKIQELKQKNQELKWKIQELKQ [4H1406-bN]

- interaction score (P1A-bN): -0.584
- interaction score (4H918-bN): -0.862
- interaction score (4H968-bN): -1.39
- interaction score (4H855-bN): -0.495
- interaction score (4H953-bN): -0.67
Binder: DEIQQLKQKIQELKQENQELEWKNQELEQ [4H855-bN]
